Measured values reported in patent US20240059758A1 (CORAT THERAPEUTICS, published 2024).

T1: HCov-HKU1 Spike protein (HCoV-HKU1, UniProt Q5MQD0 13-760)
T1 sequence: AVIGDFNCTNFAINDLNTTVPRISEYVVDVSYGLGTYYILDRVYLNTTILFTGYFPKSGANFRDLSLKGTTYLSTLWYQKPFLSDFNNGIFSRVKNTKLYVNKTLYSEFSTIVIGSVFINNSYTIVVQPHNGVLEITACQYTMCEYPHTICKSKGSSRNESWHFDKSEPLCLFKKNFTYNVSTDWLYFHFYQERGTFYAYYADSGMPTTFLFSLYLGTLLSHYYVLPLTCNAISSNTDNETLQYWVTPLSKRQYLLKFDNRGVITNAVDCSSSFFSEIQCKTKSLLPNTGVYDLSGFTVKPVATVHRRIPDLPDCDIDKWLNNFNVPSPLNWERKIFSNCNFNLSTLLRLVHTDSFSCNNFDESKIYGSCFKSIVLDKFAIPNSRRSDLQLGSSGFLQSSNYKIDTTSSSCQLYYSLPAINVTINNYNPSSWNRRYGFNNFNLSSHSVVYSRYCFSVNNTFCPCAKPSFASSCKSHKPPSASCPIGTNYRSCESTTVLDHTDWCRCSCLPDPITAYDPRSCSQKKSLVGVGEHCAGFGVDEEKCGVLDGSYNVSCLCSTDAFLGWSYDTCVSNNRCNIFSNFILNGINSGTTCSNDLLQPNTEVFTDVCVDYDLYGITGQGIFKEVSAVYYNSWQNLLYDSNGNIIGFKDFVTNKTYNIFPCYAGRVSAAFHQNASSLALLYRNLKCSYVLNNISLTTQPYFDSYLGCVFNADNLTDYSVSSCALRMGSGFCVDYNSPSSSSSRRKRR

T2: HCoV-NL63 Spike protein (HCoV-NL63, UniProt Q6Q1S2 19-717)
T2 sequence: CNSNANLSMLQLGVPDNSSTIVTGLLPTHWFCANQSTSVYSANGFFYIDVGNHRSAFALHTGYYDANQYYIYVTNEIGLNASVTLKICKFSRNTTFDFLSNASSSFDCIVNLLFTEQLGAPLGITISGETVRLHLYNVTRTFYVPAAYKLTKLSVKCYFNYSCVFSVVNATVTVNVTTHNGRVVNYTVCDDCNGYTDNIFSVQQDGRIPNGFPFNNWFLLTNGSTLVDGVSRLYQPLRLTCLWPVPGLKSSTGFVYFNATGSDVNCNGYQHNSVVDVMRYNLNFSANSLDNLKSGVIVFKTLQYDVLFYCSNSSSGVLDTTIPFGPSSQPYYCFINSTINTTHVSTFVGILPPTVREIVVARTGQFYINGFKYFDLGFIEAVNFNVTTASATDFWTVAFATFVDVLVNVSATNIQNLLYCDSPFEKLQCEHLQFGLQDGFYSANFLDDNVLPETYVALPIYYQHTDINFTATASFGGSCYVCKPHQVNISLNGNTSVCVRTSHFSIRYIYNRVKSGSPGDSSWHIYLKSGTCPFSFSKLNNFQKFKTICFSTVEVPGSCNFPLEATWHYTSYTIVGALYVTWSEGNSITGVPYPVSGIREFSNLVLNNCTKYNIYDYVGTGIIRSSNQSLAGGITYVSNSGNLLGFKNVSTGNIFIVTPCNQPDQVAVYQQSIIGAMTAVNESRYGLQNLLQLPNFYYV

T3: MERS-CoV Spike protein (MERS-CoV, UniProt K9N5Q8 18-725)
T3 sequence: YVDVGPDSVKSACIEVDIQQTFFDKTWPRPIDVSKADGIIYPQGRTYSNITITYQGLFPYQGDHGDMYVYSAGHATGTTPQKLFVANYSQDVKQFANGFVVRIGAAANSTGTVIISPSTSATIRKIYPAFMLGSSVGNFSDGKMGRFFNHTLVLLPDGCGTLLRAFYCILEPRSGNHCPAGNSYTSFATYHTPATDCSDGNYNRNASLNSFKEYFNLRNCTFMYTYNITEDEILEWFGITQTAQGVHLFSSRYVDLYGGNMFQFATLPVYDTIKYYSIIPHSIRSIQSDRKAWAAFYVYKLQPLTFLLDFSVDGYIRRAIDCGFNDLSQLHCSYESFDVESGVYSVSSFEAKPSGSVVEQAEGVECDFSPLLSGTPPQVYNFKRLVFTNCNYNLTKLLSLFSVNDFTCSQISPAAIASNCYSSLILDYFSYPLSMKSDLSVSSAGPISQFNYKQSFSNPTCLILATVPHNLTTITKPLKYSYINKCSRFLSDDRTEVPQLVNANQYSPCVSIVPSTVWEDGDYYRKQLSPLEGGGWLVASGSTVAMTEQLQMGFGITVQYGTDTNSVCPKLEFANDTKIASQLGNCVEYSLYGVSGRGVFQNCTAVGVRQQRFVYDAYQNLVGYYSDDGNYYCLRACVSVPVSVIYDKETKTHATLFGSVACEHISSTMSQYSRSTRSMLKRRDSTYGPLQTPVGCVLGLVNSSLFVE

T4: HCoV-229E Spike protein (HCoV-229E, UniProt P15423 16-560)
T4 sequence: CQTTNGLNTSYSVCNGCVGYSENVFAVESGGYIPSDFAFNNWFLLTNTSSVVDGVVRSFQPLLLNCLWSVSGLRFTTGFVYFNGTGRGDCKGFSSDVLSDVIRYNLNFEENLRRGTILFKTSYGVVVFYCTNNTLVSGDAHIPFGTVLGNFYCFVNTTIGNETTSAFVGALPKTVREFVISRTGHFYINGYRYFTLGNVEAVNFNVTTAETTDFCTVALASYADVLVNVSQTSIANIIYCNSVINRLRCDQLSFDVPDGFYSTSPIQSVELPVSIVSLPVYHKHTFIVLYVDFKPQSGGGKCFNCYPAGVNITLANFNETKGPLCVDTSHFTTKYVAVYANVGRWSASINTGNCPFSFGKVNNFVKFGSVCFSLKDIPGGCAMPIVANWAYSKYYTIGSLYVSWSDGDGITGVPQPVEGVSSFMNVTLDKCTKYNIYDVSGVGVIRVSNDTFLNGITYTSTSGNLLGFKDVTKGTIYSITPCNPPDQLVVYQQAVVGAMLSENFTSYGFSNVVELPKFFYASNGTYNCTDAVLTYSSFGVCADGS

B1: YU505-F05 (antibody, V domains shown)
VH: EVQLLESGGGVVQPGRSLRLSCAASGFTFSSYGMHWVRQAPGKGLEWVAVMSYDGSKKYYADSVKGRFTISRDNSKNTLYLQMNSLRAEDTAVYYCVTQGMDVWGQGTLVTVSS
VL: QSVLTQPPSVSVAPGKTARITCGGNNIGSKSVHWYQQKPGQAPVLVIYYISDRPSGIPERFSGSNSGNTATLTISRVEAGDEAAYYCHVWDSSSDHVVFGGGTKLTVL
B2: YU505-A01 (antibody, V domains shown)
VH: QVQLVQSGAEVKKPGASVKVSCKASGYTFTSYYMHWVRQAPGQGLEWMGIINPSGGSTSYAQKFQGRVTMTRDTSTSTVYMELSSLRSEDTAVYYCARDRHYYDSSGSSQATFLFDYWGQGTLVTVSS
VL: QSVLTQPPSVSGAPGQRVTISCTGSSSNIGAGYDVHWYQQLPGTAPKLLIYGNSNRPSGVPDRFSGSKSGTSASLAITGLQAEDEADYYCQSYDSSLNVFGTGTKLTVL
B3: YU505-A02 (antibody, V domains shown)
VH: QVQLVESGAEVKKPGSSVKVSCKASGGTFSSYAISWVRQAPGQGLEWMGGIIPIFGTANYAQKFQGRVTITADESTSTAYMELSSLRSEDTAVYYCARQIWAYDSSGYPVPAEYFQHWGQGTLVTVSS
VL: QSVLTQPPSVSGAPGQRVTISCTGSSSNIGAGYDVHWYQQLPGTAPKLLIYGNSNRPSGVPDRFSGSKSGTSASLAITGLQAEDEADYYCQSYDSSLSGVVFGGGTKLTVL
B4: YU505-A02 (antibody, V domains shown)
VH: B3 VH
VL: B3 VL
B5: hybrid antibody: VL YU537-H11 (SEQ ID No. 402) with VH STE90-C11 (SEQ ID No. 1305) (antibody, V domains shown)
VH: QVQLVESGGGLVQPGGSLRLSCAASGLTVSSNYMSWVRQAPGKGLEWVSVIYSGGSTYYADSVKGRFTISRDDSKNTLYLQMNSLRAEDTAVYYCARDVADAFDIWGQGTMVTVSS
VL: QSVLTQPPSVSAAPGQKVTISCSGSSSNIGNNYVSWYQQLPGTAPKLLIYDTNKRPSGIPDRFSGSKSGTSATLGITGLQTGDEADYYCATWDSSLSVGVFGGGTKLTVL
B6: STE90-C11 (antibody, V domains shown)
VH: B5 VH
VL: DIVMTQSPSFLSASVGDRVTITCRASQGISSYLAWYQQKPGKAPKLLIYAASTLQSGVPSRFSGSGSGTEFTLTISSLQPEDFATYYCQQLNSYPPFTFGPGTKVDIK
B7: YU537-H11 (antibody, V domains shown)
VH: EVQLLESGGGLIQPGGSLRLSCAASGLTVSSNYMSWVRQAPGKGLEWVSVIYSGGSTYYADSVKGRFTISRDNSKNALYLQMNSLRAEDTAVYYCARGESGSPYGMDVWGQGTLVTVSS
VL: B5 VL
B8: YU536-D04 (antibody, V domains shown)
VH: QVQLVQSGGGLVQPGGSLRLSCAASGLTVSSNYMSWVRQAPGKGLEWVSVIYSGGSTYYADSVKGRFIISRDNSKNTLYLQMNSLRAEDTAVYYCARDLVVMGLDVWGKGTLVTVSS
VL: DIQLTQSPSSLSASVGDRVTITCRASQGISSYLAWYQQKPGKAPKLLIYAASTLQSGVPSRFSGSGSGTDFTLTISSLQPEDFATYYCQQLNSYPITFGQGTKLEIK
B9: YU505-E01 (antibody, V domains shown)
VH: QVQLVQSGAEVKKPGSSVKVSCKASGGTFSSYSIVWVRQAPGQGLEWMGGIIPIFGTTNYAQKFQGRVTITADESTSTAFMELSNLKSEDTAVYFCARSLGATRDYWGQGTLVTVSS
VL: SYVLTQPPSVSEAPRQRVTISCSGSSSNIGNNAVNWYQQLPGKAPKLLIYYDDLLPSGVSDRFSGSKSGTSASLAISGLQSEDEADYYCAAWDDSLNGPVFGGGTKVTVL

Columns and labels:
[1] = target: T5, receptor binding domain (RBD) of the S1-subunit of SARS-CoV-2 glycoprotein S (SARS-CoV-2, UniProt P0DTC2 319-541); assay: ACE2:RBD competition, antibody at 5 µg/ml
[2] = target: T5, receptor binding domain (RBD) of the …; assay: ACE2:RBD competition, antibody at 0.5 µg/ml
[3] = target: SARS-CoV-2 glycoprotein S (SARS-CoV-2, UniProt P0DTC2 14-1273); assay: cell-based or functional assay
HCov-HKU1 Spike protein = target: T1, HCov-HKU1 Spike protein; assay: titration ELISA
HCoV-NL63 Spike protein = target: T2, HCoV-NL63 Spike protein; assay: titration ELISA
SARS-CoV-1 Spike protein = SARS-CoV-1 Spike protein (SARS-CoV-1, UniProt P59594 14-667); assay: titration ELISA
MERS-CoV Spike protein = target: T3, MERS-CoV Spike protein; assay: titration ELISA
HCoV-229E Spike protein = target: T4, HCoV-229E Spike protein; assay: titration ELISA
[4] = target: receptor binding domain (RBD) of the S1-subunit of SARS-CoV-2 glycoprotein S (SARS-CoV-2, UniProt P0DTC2 319-541); assay: RBD-binding quality as compared to STE90-C11, wt

Binder | ACE2 bound to RBD at 5 µg/ml antibody [1] [%] | ACE2 bound to RBD at 0.5 µg/ml antibody [2] [%] | Confluence Score in VERO E6 cell assay [3] [%] | binding result (HCov-HKU1 Spike protein) | binding result (HCoV-NL63 Spike protein) | binding result (SARS-CoV-1 Spike protein) | binding result (MERS-CoV Spike protein) | binding result (HCoV-229E Spike protein) | binding result [4]
B1 | < 30 | < 60 | > 95 | – | – | – | – | – | –
B2 | < 30 | < 60 | > 99 | – | – | – | – | – | –
B3 | < 30 | < 60 | > 99 | – | – | – | – | – | –
B4 | – | – | – | no binding | no binding | no binding | no binding | no binding | –
B5 | – | – | – | – | – | – | – | – | binds
B6 | – | – | – | no binding | no binding | no binding | no binding | no binding | –
B7 | – | – | – | no binding | no binding | no binding | no binding | no binding | –
B8 | – | – | – | no binding | no binding | no binding | no binding | no binding | –
B9 | < 25 | < 50 | > 98 | – | – | – | – | – | –
